# Reference: PMC12901202
# Tests used:
# Test in all cases: BLI; […]; 300 s association, 300 s dissociation; 10x kinetics buffer; […]; global fit, 1:1 model; […]
# [1] = target: SARS-CoV-2 XBB.1.5 RBD, biotinylated (SARS-CoV-2) (UniProt P0DTC2)
# [2] = target: SARS-CoV-2 BA.2.86 RBD, biotinylated (SARS-CoV-2) (UniProt P0DTC2)
# [3] = target: SARS-CoV-2 BQ.1.1 RBD, biotinylated (SARS-CoV-2) (UniProt P0DTC2)
# [4] = target: SARS-CoV-2 BA.2.75.2 RBD, biotinylated (SARS-CoV-2) (UniProt P0DTC2)
# [5] = target: SARS-CoV-2 BA.5 RBD, biotinylated (SARS-CoV-2) (UniProt P0DTC2)
# [6] = target: SARS-CoV-2 BA.2.12.1 RBD, biotinylated (SARS-CoV-2) (UniProt P0DTC2)
# [7] = target: SARS-CoV-2 Delta RBD, biotinylated (SARS-CoV-2) (UniProt P0DTC2)
# [8] = target: SARS-CoV-2 Wuhan-Hu-1 RBD, biotinylated (SARS-CoV-2) (UniProt P0DTC2)
substance,measurement,setting,value
TRI2-2 homotrimeric miniprotein inhibitor (designed binder),Kd,[1],0.658 nM
same,koff,[1],0.000105 s⁻¹
same,kon,[1],160000 M⁻¹ s⁻¹
same,Kd,[2],0.388 nM
same,koff,[2],0.000131 s⁻¹
same,kon,[2],339000 M⁻¹ s⁻¹
same,Kd,[3],0.21 nM
same,koff,[3],3.36e-05 s⁻¹
same,kon,[3],160000 M⁻¹ s⁻¹
same,Kd,[4],0.542 nM
same,koff,[4],8.93e-05 s⁻¹
same,kon,[4],165000 M⁻¹ s⁻¹
same,Kd,[5],0.0306 nM
same,koff,[5],9.92e-06 s⁻¹
same,kon,[5],325000 M⁻¹ s⁻¹
same,Kd,[6],0.851 nM
same,koff,[6],0.000117 s⁻¹
same,kon,[6],137000 M⁻¹ s⁻¹
same,Kd,[7],0.00114 nM
same,koff,[7],2.95e-07 s⁻¹
same,kon,[7],259000 M⁻¹ s⁻¹
same,Kd,[8],0.00121 nM
same,koff,[8],3.46e-07 s⁻¹
same,kon,[8],286000 M⁻¹ s⁻¹
